Test results as given in patent US20180155451A1 (published 2018).

Tests used:
[1] = molecular target: T1, FcγRIIa H (human, UniProt P12318 34-217); test: SPR (Biacore), antibody captured, FcγR as analyte; binding relative to GpH7-A5/GpH7-B3/GpL16-k0 = 100
T1 construct: extracellular domain; also called FcgRIIa H; FcγRIIa type H; not shown: His tag attached to the C terminus
T1 sequence (looked up): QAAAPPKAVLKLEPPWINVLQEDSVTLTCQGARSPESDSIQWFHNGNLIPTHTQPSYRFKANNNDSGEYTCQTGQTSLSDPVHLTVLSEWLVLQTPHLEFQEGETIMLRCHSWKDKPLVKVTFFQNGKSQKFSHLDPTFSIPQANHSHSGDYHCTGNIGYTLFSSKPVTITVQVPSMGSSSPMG

[2] = molecular target: T2, FcγRIIb (human, UniProt P31994 43-217); test: as above
T2 construct: extracellular domain; also called FcgRIIb; 2b; not shown: His tag attached to the C terminus
T2 sequence (looked up): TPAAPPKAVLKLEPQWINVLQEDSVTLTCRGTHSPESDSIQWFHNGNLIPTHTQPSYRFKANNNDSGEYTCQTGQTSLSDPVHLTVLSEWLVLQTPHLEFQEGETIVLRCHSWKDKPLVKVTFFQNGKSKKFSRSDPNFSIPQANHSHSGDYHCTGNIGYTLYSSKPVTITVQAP

[3] = molecular target: T3, FcγRIa extracellular domain with C-terminal His tag (human, UniProt P12314 16-292); test: SPR Biacore, antibody captured, FcγRIa analyte; vs GpH7-B3/GpL16-k0 = 100
T3 construct: extracellular domain; Expressed in FreeStyle293 cells; analyte in Biacore; also called FcgRI; FcgRIa
T3 sequence (P12314 16-292): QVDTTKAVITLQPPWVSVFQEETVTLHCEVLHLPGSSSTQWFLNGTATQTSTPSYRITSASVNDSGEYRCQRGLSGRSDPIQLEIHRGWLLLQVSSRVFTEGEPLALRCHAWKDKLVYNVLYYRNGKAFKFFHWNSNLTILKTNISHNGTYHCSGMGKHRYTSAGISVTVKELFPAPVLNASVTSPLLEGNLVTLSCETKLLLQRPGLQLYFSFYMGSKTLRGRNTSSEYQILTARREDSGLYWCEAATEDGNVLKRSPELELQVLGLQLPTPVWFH

| He/Con_2aH [1] [control = 100] | He/Con_2b [2] [control = 100] | Ho/Con_1a [3] | Binder |
| --- | --- | --- | --- |
| 106 | 85.8 | – | GpH7-A5/GpH7-B3 variant S324_09D/GpL16-k0 (antibody, human IgG1, kappa, Heterodimerized IgG1, mutation in the GpH7-B3 chain only; also called He Ab) heavy 1: not shown heavy 2: not shown light: DIVMTQSPLSLPVTPGEPASISCQASESLVHSNRNTYLHWYLQKPGQSPQLLIYKVSNRFSGVPDRFSGSGSGTDFTLKISRVEAEDVGVYYCSQNTHVPPTFGQGTKVEIERTVAAPSVFIFPPSDEQLKSGTASVVCLLNNFYPREAKVQWKVDNALQSGNSQESVTEQDSKDSTYSLSSTLTLSKADYEKHKVYACEVTHQGLSSPVTKSFNRGEC |
| – | – | 102 relative (control = 100) | GpH7-B3 variant P271_02A/GpL16-k0 (Ho Ab) (antibody, human IgG1, kappa, Ho Ab: alteration in both H chains) heavy: not shown light: DIVMTQSPLSLPVTPGEPASISCQASESLVHSNRNTYLHWYLQKPGQSPQLLIYKVSNRFSGVPDRFSGSGSGTDFTLKISRVEAEDVGVYYCSQNTHVPPTFGQGTKVEIERTVAAPSVFIFPPSDEQLKSGTASVVCLLNNFYPREAKVQWKVDNALQSGNSQESVTEQDSKDSTYSLSSTLTLSKADYEKHKVYACEVTHQGLSSPVTKSFNRGEC |
| – | – | 102 relative (control = 100) | GpH7-B3 variant A327_09D/GpL16-k0 (Ho Ab) (antibody, human IgG1, kappa, Ho Ab: alteration in both H chains) heavy: not shown light: DIVMTQSPLSLPVTPGEPASISCQASESLVHSNRNTYLHWYLQKPGQSPQLLIYKVSNRFSGVPDRFSGSGSGTDFTLKISRVEAEDVGVYYCSQNTHVPPTFGQGTKVEIERTVAAPSVFIFPPSDEQLKSGTASVVCLLNNFYPREAKVQWKVDNALQSGNSQESVTEQDSKDSTYSLSSTLTLSKADYEKHKVYACEVTHQGLSSPVTKSFNRGEC |
| 104 | 98.9 | – | GpH7-A5/GpH7-B3 variant Y296_09D/GpL16-k0 (antibody, human IgG1, kappa, Heterodimerized IgG1, mutation in the GpH7-B3 chain only; also called He Ab) heavy 1: not shown heavy 2: not shown light: DIVMTQSPLSLPVTPGEPASISCQASESLVHSNRNTYLHWYLQKPGQSPQLLIYKVSNRFSGVPDRFSGSGSGTDFTLKISRVEAEDVGVYYCSQNTHVPPTFGQGTKVEIERTVAAPSVFIFPPSDEQLKSGTASVVCLLNNFYPREAKVQWKVDNALQSGNSQESVTEQDSKDSTYSLSSTLTLSKADYEKHKVYACEVTHQGLSSPVTKSFNRGEC |
| 104 | 92.2 | – | GpH7-A5/GpH7-B3 variant Y296_16H/GpL16-k0 (antibody, human IgG1, kappa, Heterodimerized IgG1, mutation in the GpH7-B3 chain only; also called He Ab) heavy 1: not shown heavy 2: not shown light: DIVMTQSPLSLPVTPGEPASISCQASESLVHSNRNTYLHWYLQKPGQSPQLLIYKVSNRFSGVPDRFSGSGSGTDFTLKISRVEAEDVGVYYCSQNTHVPPTFGQGTKVEIERTVAAPSVFIFPPSDEQLKSGTASVVCLLNNFYPREAKVQWKVDNALQSGNSQESVTEQDSKDSTYSLSSTLTLSKADYEKHKVYACEVTHQGLSSPVTKSFNRGEC |
| 100 | 99.2 | – | GpH7-A5/GpH7-B3 variant Y296_04F/GpL16-k0 (antibody, human IgG1, kappa, Heterodimerized IgG1, mutation in the GpH7-B3 chain only; also called He Ab) heavy 1: not shown heavy 2: not shown light: DIVMTQSPLSLPVTPGEPASISCQASESLVHSNRNTYLHWYLQKPGQSPQLLIYKVSNRFSGVPDRFSGSGSGTDFTLKISRVEAEDVGVYYCSQNTHVPPTFGQGTKVEIERTVAAPSVFIFPPSDEQLKSGTASVVCLLNNFYPREAKVQWKVDNALQSGNSQESVTEQDSKDSTYSLSSTLTLSKADYEKHKVYACEVTHQGLSSPVTKSFNRGEC |
| – | – | 106 relative (control = 100) | GpH7-B3 variant A330_08L/GpL16-k0 (Ho Ab) (antibody, human IgG1, kappa, Ho Ab: alteration in both H chains; also called GpH7-B3-20-08L/GpL16-k0) heavy: not shown light: DIVMTQSPLSLPVTPGEPASISCQASESLVHSNRNTYLHWYLQKPGQSPQLLIYKVSNRFSGVPDRFSGSGSGTDFTLKISRVEAEDVGVYYCSQNTHVPPTFGQGTKVEIERTVAAPSVFIFPPSDEQLKSGTASVVCLLNNFYPREAKVQWKVDNALQSGNSQESVTEQDSKDSTYSLSSTLTLSKADYEKHKVYACEVTHQGLSSPVTKSFNRGEC |
| – | – | 102 relative (control = 100) | GpH7-B3 variant E269_04F/GpL16-k0 (Ho Ab) (antibody, human IgG1, kappa, Ho Ab: alteration in both H chains) heavy: not shown light: DIVMTQSPLSLPVTPGEPASISCQASESLVHSNRNTYLHWYLQKPGQSPQLLIYKVSNRFSGVPDRFSGSGSGTDFTLKISRVEAEDVGVYYCSQNTHVPPTFGQGTKVEIERTVAAPSVFIFPPSDEQLKSGTASVVCLLNNFYPREAKVQWKVDNALQSGNSQESVTEQDSKDSTYSLSSTLTLSKADYEKHKVYACEVTHQGLSSPVTKSFNRGEC |
| 103 | 77.4 | – | GpH7-A5/GpH7-B3 variant S324_10E/GpL16-k0 (antibody, human IgG1, kappa, Heterodimerized IgG1, mutation in the GpH7-B3 chain only; also called He Ab) heavy 1: not shown heavy 2: not shown light: DIVMTQSPLSLPVTPGEPASISCQASESLVHSNRNTYLHWYLQKPGQSPQLLIYKVSNRFSGVPDRFSGSGSGTDFTLKISRVEAEDVGVYYCSQNTHVPPTFGQGTKVEIERTVAAPSVFIFPPSDEQLKSGTASVVCLLNNFYPREAKVQWKVDNALQSGNSQESVTEQDSKDSTYSLSSTLTLSKADYEKHKVYACEVTHQGLSSPVTKSFNRGEC |
| 104 | 91.5 | – | GpH7-A5/GpH7-B3 variant Y296_18N/GpL16-k0 (antibody, human IgG1, kappa, Heterodimerized IgG1, mutation in the GpH7-B3 chain only; also called He Ab) heavy 1: not shown heavy 2: not shown light: DIVMTQSPLSLPVTPGEPASISCQASESLVHSNRNTYLHWYLQKPGQSPQLLIYKVSNRFSGVPDRFSGSGSGTDFTLKISRVEAEDVGVYYCSQNTHVPPTFGQGTKVEIERTVAAPSVFIFPPSDEQLKSGTASVVCLLNNFYPREAKVQWKVDNALQSGNSQESVTEQDSKDSTYSLSSTLTLSKADYEKHKVYACEVTHQGLSSPVTKSFNRGEC |
| 108 | 74.5 | – | GpH7-A5/GpH7-B3 variant Y300_07I/GpL16-k0 (antibody, human IgG1, kappa, Heterodimerized IgG1, mutation in the GpH7-B3 chain only; also called He Ab) heavy 1: not shown heavy 2: not shown light: DIVMTQSPLSLPVTPGEPASISCQASESLVHSNRNTYLHWYLQKPGQSPQLLIYKVSNRFSGVPDRFSGSGSGTDFTLKISRVEAEDVGVYYCSQNTHVPPTFGQGTKVEIERTVAAPSVFIFPPSDEQLKSGTASVVCLLNNFYPREAKVQWKVDNALQSGNSQESVTEQDSKDSTYSLSSTLTLSKADYEKHKVYACEVTHQGLSSPVTKSFNRGEC |
| – | – | 105 relative (control = 100) | GpH7-B3 variant A330_14T/GpL16-k0 (Ho Ab) (antibody, human IgG1, kappa, Ho Ab: alteration in both H chains) heavy: not shown light: DIVMTQSPLSLPVTPGEPASISCQASESLVHSNRNTYLHWYLQKPGQSPQLLIYKVSNRFSGVPDRFSGSGSGTDFTLKISRVEAEDVGVYYCSQNTHVPPTFGQGTKVEIERTVAAPSVFIFPPSDEQLKSGTASVVCLLNNFYPREAKVQWKVDNALQSGNSQESVTEQDSKDSTYSLSSTLTLSKADYEKHKVYACEVTHQGLSSPVTKSFNRGEC |
| 103 | 87.5 | – | GpH7-A5/GpH7-B3 variant S324_20W/GpL16-k0 (antibody, human IgG1, kappa, Heterodimerized IgG1, mutation in the GpH7-B3 chain only; also called He Ab) heavy 1: not shown heavy 2: not shown light: DIVMTQSPLSLPVTPGEPASISCQASESLVHSNRNTYLHWYLQKPGQSPQLLIYKVSNRFSGVPDRFSGSGSGTDFTLKISRVEAEDVGVYYCSQNTHVPPTFGQGTKVEIERTVAAPSVFIFPPSDEQLKSGTASVVCLLNNFYPREAKVQWKVDNALQSGNSQESVTEQDSKDSTYSLSSTLTLSKADYEKHKVYACEVTHQGLSSPVTKSFNRGEC |
| 108 | 73.6 | – | GpH7-A5/GpH7-B3 variant Y300_08L/GpL16-k0 (antibody, human IgG1, kappa, Heterodimerized IgG1, mutation in the GpH7-B3 chain only; also called He Ab) heavy 1: not shown heavy 2: not shown light: DIVMTQSPLSLPVTPGEPASISCQASESLVHSNRNTYLHWYLQKPGQSPQLLIYKVSNRFSGVPDRFSGSGSGTDFTLKISRVEAEDVGVYYCSQNTHVPPTFGQGTKVEIERTVAAPSVFIFPPSDEQLKSGTASVVCLLNNFYPREAKVQWKVDNALQSGNSQESVTEQDSKDSTYSLSSTLTLSKADYEKHKVYACEVTHQGLSSPVTKSFNRGEC |
| 102 | 83.5 | – | GpH7-A5/GpH7-B3 variant S324_16H/GpL16-k0 (antibody, human IgG1, kappa, Heterodimerized IgG1, mutation in the GpH7-B3 chain only; also called He Ab) heavy 1: not shown heavy 2: not shown light: DIVMTQSPLSLPVTPGEPASISCQASESLVHSNRNTYLHWYLQKPGQSPQLLIYKVSNRFSGVPDRFSGSGSGTDFTLKISRVEAEDVGVYYCSQNTHVPPTFGQGTKVEIERTVAAPSVFIFPPSDEQLKSGTASVVCLLNNFYPREAKVQWKVDNALQSGNSQESVTEQDSKDSTYSLSSTLTLSKADYEKHKVYACEVTHQGLSSPVTKSFNRGEC |
| 105 | 84.3 | – | GpH7-A5/GpH7-B3 variant Y300_06M/GpL16-k0 (antibody, human IgG1, kappa, Heterodimerized IgG1, mutation in the GpH7-B3 chain only; also called He Ab) heavy 1: not shown heavy 2: not shown light: DIVMTQSPLSLPVTPGEPASISCQASESLVHSNRNTYLHWYLQKPGQSPQLLIYKVSNRFSGVPDRFSGSGSGTDFTLKISRVEAEDVGVYYCSQNTHVPPTFGQGTKVEIERTVAAPSVFIFPPSDEQLKSGTASVVCLLNNFYPREAKVQWKVDNALQSGNSQESVTEQDSKDSTYSLSSTLTLSKADYEKHKVYACEVTHQGLSSPVTKSFNRGEC |
| – | – | 108 relative (control = 100) | GpH7-B3 variant A330_09D/GpL16-k0 (Ho Ab) (antibody, human IgG1, kappa, Ho Ab: alteration in both H chains) heavy: not shown light: DIVMTQSPLSLPVTPGEPASISCQASESLVHSNRNTYLHWYLQKPGQSPQLLIYKVSNRFSGVPDRFSGSGSGTDFTLKISRVEAEDVGVYYCSQNTHVPPTFGQGTKVEIERTVAAPSVFIFPPSDEQLKSGTASVVCLLNNFYPREAKVQWKVDNALQSGNSQESVTEQDSKDSTYSLSSTLTLSKADYEKHKVYACEVTHQGLSSPVTKSFNRGEC |
| 102 | 88.2 | – | GpH7-A5/GpH7-B3 variant S324_15Y/GpL16-k0 (antibody, human IgG1, kappa, Heterodimerized IgG1, mutation in the GpH7-B3 chain only; also called He Ab) heavy 1: not shown heavy 2: not shown light: DIVMTQSPLSLPVTPGEPASISCQASESLVHSNRNTYLHWYLQKPGQSPQLLIYKVSNRFSGVPDRFSGSGSGTDFTLKISRVEAEDVGVYYCSQNTHVPPTFGQGTKVEIERTVAAPSVFIFPPSDEQLKSGTASVVCLLNNFYPREAKVQWKVDNALQSGNSQESVTEQDSKDSTYSLSSTLTLSKADYEKHKVYACEVTHQGLSSPVTKSFNRGEC |
